Results reported in publication PMC9214875.

Experiments:
[1] = nuclear/cytoplasmic fractionation, Western blot, LO2 and MHCC97H; settings: glycan lost; control: wild type
[2] = cycloheximide chase, Western blot, MHCC97H; settings: glycan lost; control: wild type (G-MerTK)
[3] = Blue Native PAGE, MHCC97H and HCCLM3; settings: glycan lost; control: wild type
[4] = Blue Native PAGE, endogenous MerTK, MHCC97H; settings: glycan lost; control: untreated / with glucose
[5] = MerTK IP, anti-ubiquitin blot, MHCC97H and HCCLM3; settings: glycan lost; control: untreated
[6] = nuclear/cytoplasmic fractionation, Western blot, MHCC97H; settings: glycan lost; control: untreated
[7] = MG132 rescue of MerTK level, Western blot; settings: glycan lost; control: no TM

Protein	localisation_or_trafficking [1]	degradation_or_half_life [2]	oligomerisation [3]	oligomerisation [4]	other: ubiquitination [5]	localisation_or_trafficking [6]	degradation_or_half_life [7]
MerTK: N294Q (protein) parent chain: MGPAPLPLLLGLFLPALWRRAITEAREEAKPYPLFPGPFPGSLQTDHTPLLSLPHASGYQPALMFSPTQPGRPHTGNVAIPQVTSVESKPLPPLAFKHTVGHIILSEHKGVKFNCSISVPNIYQDTTISWWKDGKELLGAHHAITQFYPDDEVTAIIASFSITSVQRSDNGSYICKMKINNEEIVSDPIYIEVQGLPHFTKQPESMNVTRNTAFNLTCQAVGPPEPVNIFWVQNSSRVNEQPEKSPSVLTVPGLTEMAVFSCEAHNDKGLTVSKGVQINIKAIPSPPTEVSIRNSTAHSILISWVPGFDGYSPFRNCSIQVKEADPLSNGSVMIFNTSALPHLYQIKQLQALANYSIGVSCMNEIGWSAVSPWILASTTEGAPSVAPLNVTVFLNESSDNVDIRWMKPPTKQQDGELVGYRISHVWQSAGISKELLEEVGQNGSRARISVQVHNATCTVRIAAVTRGGVGPFSDPVKIFIPAHGWVDYAPSSTPAPGNADPVLIIFGCFCGFILIGLILYISLAIRKRVQETKFGNAFTEEDSELVVNYIAKKSFCRRAIELTLHSLGVSEELQNKLEDVVIDRNLLILGKILGEGEFGSVMEGNLKQEDGTSLKVAVKTMKLDNSSQREIEEFLSEAACMKDFSHPNVIRLLGVCIEMSSQGIPKPMVILPFMKYGDLHTYLLYSRLETGPKHIPLQTLLKFMVDIALGMEYLSNRNFLHRDLAARNCMLRDDMTVCVADFGLSKKIYSGDYYRQGRIAKMPVKWIAIESLADRVYTSKSDVWAFGVTMWEIATRGMTPYPGVQNHEMYDYLLHGHRLKQPEDCLDELYEIMYSCWRTDPLDRPTFSVLRLQLEKLLESLPDVRNQADVIYVNTQLLESSEGLAQGSTLAPLDLNIDPDSIIASCTPRAAISVVTAEVHDSKPHEGRYILNGGSEEWEDLTSAPSAAVTAEKNSVLPGERLVRNGVSWSHSSMLPLGSSLPDELLFADDSSEGSEVLM	increases	decreases	decreases				
MerTK: N454Q (protein) parent chain: MGPAPLPLLLGLFLPALWRRAITEAREEAKPYPLFPGPFPGSLQTDHTPLLSLPHASGYQPALMFSPTQPGRPHTGNVAIPQVTSVESKPLPPLAFKHTVGHIILSEHKGVKFNCSISVPNIYQDTTISWWKDGKELLGAHHAITQFYPDDEVTAIIASFSITSVQRSDNGSYICKMKINNEEIVSDPIYIEVQGLPHFTKQPESMNVTRNTAFNLTCQAVGPPEPVNIFWVQNSSRVNEQPEKSPSVLTVPGLTEMAVFSCEAHNDKGLTVSKGVQINIKAIPSPPTEVSIRNSTAHSILISWVPGFDGYSPFRNCSIQVKEADPLSNGSVMIFNTSALPHLYQIKQLQALANYSIGVSCMNEIGWSAVSPWILASTTEGAPSVAPLNVTVFLNESSDNVDIRWMKPPTKQQDGELVGYRISHVWQSAGISKELLEEVGQNGSRARISVQVHNATCTVRIAAVTRGGVGPFSDPVKIFIPAHGWVDYAPSSTPAPGNADPVLIIFGCFCGFILIGLILYISLAIRKRVQETKFGNAFTEEDSELVVNYIAKKSFCRRAIELTLHSLGVSEELQNKLEDVVIDRNLLILGKILGEGEFGSVMEGNLKQEDGTSLKVAVKTMKLDNSSQREIEEFLSEAACMKDFSHPNVIRLLGVCIEMSSQGIPKPMVILPFMKYGDLHTYLLYSRLETGPKHIPLQTLLKFMVDIALGMEYLSNRNFLHRDLAARNCMLRDDMTVCVADFGLSKKIYSGDYYRQGRIAKMPVKWIAIESLADRVYTSKSDVWAFGVTMWEIATRGMTPYPGVQNHEMYDYLLHGHRLKQPEDCLDELYEIMYSCWRTDPLDRPTFSVLRLQLEKLLESLPDVRNQADVIYVNTQLLESSEGLAQGSTLAPLDLNIDPDSIIASCTPRAAISVVTAEVHDSKPHEGRYILNGGSEEWEDLTSAPSAAVTAEKNSVLPGERLVRNGVSWSHSSMLPLGSSLPDELLFADDSSEGSEVLM	increases	decreases	decreases				
MerTK: glucose deprivation (protein) parent chain: MGPAPLPLLLGLFLPALWRRAITEAREEAKPYPLFPGPFPGSLQTDHTPLLSLPHASGYQPALMFSPTQPGRPHTGNVAIPQVTSVESKPLPPLAFKHTVGHIILSEHKGVKFNCSISVPNIYQDTTISWWKDGKELLGAHHAITQFYPDDEVTAIIASFSITSVQRSDNGSYICKMKINNEEIVSDPIYIEVQGLPHFTKQPESMNVTRNTAFNLTCQAVGPPEPVNIFWVQNSSRVNEQPEKSPSVLTVPGLTEMAVFSCEAHNDKGLTVSKGVQINIKAIPSPPTEVSIRNSTAHSILISWVPGFDGYSPFRNCSIQVKEADPLSNGSVMIFNTSALPHLYQIKQLQALANYSIGVSCMNEIGWSAVSPWILASTTEGAPSVAPLNVTVFLNESSDNVDIRWMKPPTKQQDGELVGYRISHVWQSAGISKELLEEVGQNGSRARISVQVHNATCTVRIAAVTRGGVGPFSDPVKIFIPAHGWVDYAPSSTPAPGNADPVLIIFGCFCGFILIGLILYISLAIRKRVQETKFGNAFTEEDSELVVNYIAKKSFCRRAIELTLHSLGVSEELQNKLEDVVIDRNLLILGKILGEGEFGSVMEGNLKQEDGTSLKVAVKTMKLDNSSQREIEEFLSEAACMKDFSHPNVIRLLGVCIEMSSQGIPKPMVILPFMKYGDLHTYLLYSRLETGPKHIPLQTLLKFMVDIALGMEYLSNRNFLHRDLAARNCMLRDDMTVCVADFGLSKKIYSGDYYRQGRIAKMPVKWIAIESLADRVYTSKSDVWAFGVTMWEIATRGMTPYPGVQNHEMYDYLLHGHRLKQPEDCLDELYEIMYSCWRTDPLDRPTFSVLRLQLEKLLESLPDVRNQADVIYVNTQLLESSEGLAQGSTLAPLDLNIDPDSIIASCTPRAAISVVTAEVHDSKPHEGRYILNGGSEEWEDLTSAPSAAVTAEKNSVLPGERLVRNGVSWSHSSMLPLGSSLPDELLFADDSSEGSEVLM				abolishes			
MerTK: TM (protein) parent chain: MGPAPLPLLLGLFLPALWRRAITEAREEAKPYPLFPGPFPGSLQTDHTPLLSLPHASGYQPALMFSPTQPGRPHTGNVAIPQVTSVESKPLPPLAFKHTVGHIILSEHKGVKFNCSISVPNIYQDTTISWWKDGKELLGAHHAITQFYPDDEVTAIIASFSITSVQRSDNGSYICKMKINNEEIVSDPIYIEVQGLPHFTKQPESMNVTRNTAFNLTCQAVGPPEPVNIFWVQNSSRVNEQPEKSPSVLTVPGLTEMAVFSCEAHNDKGLTVSKGVQINIKAIPSPPTEVSIRNSTAHSILISWVPGFDGYSPFRNCSIQVKEADPLSNGSVMIFNTSALPHLYQIKQLQALANYSIGVSCMNEIGWSAVSPWILASTTEGAPSVAPLNVTVFLNESSDNVDIRWMKPPTKQQDGELVGYRISHVWQSAGISKELLEEVGQNGSRARISVQVHNATCTVRIAAVTRGGVGPFSDPVKIFIPAHGWVDYAPSSTPAPGNADPVLIIFGCFCGFILIGLILYISLAIRKRVQETKFGNAFTEEDSELVVNYIAKKSFCRRAIELTLHSLGVSEELQNKLEDVVIDRNLLILGKILGEGEFGSVMEGNLKQEDGTSLKVAVKTMKLDNSSQREIEEFLSEAACMKDFSHPNVIRLLGVCIEMSSQGIPKPMVILPFMKYGDLHTYLLYSRLETGPKHIPLQTLLKFMVDIALGMEYLSNRNFLHRDLAARNCMLRDDMTVCVADFGLSKKIYSGDYYRQGRIAKMPVKWIAIESLADRVYTSKSDVWAFGVTMWEIATRGMTPYPGVQNHEMYDYLLHGHRLKQPEDCLDELYEIMYSCWRTDPLDRPTFSVLRLQLEKLLESLPDVRNQADVIYVNTQLLESSEGLAQGSTLAPLDLNIDPDSIIASCTPRAAISVVTAEVHDSKPHEGRYILNGGSEEWEDLTSAPSAAVTAEKNSVLPGERLVRNGVSWSHSSMLPLGSSLPDELLFADDSSEGSEVLM				abolishes	increases	increases	decreases
